Data as given in patent publication US20190062438A1 (CSL, published 2019).
Positions count from the first letter of the chain named.

What was measured:
Test in all cases: SPR, kinetics, Fab over captured mutant
shCD131 M363A = molecular target: T1, shCD131 M363A (human, UniProt P32927 17-438)
T1 construct: C-terminal 6xHis
T1 sequence: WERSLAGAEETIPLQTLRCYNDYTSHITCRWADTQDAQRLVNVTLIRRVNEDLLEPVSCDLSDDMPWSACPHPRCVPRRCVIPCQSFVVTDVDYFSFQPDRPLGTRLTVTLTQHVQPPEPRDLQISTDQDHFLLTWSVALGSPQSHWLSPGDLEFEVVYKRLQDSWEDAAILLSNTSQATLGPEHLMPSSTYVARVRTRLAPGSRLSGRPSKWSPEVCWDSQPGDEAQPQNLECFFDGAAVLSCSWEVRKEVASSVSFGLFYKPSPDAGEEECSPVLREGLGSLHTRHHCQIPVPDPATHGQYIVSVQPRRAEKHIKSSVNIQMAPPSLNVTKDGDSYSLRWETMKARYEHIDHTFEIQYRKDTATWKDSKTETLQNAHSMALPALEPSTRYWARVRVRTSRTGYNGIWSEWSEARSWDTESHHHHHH

shCD131 N422A = molecular target: T2, shCD131 N422A (human, UniProt P32927 17-438)
T2 construct: C-terminal 6xHis
T2 sequence: T1 sequence with A347M, N406A

shCD131 Y421A = molecular target: T3, shCD131 Y421A (human, UniProt P32927 17-438)
T3 construct: C-terminal 6xHis
T3 sequence: T1 sequence with A347M, Y405A

shCD131 R418A = molecular target: T4, shCD131 R418A (human, UniProt P32927 17-438)
T4 construct: C-terminal 6xHis
T4 sequence: T1 sequence with A347M, R402A

B1: 9A2 Fab (Fab, V domains shown)
VH: EVQLLESGGGLVQPGGSLRLSCAASGFTFSHYHMLWVRQAPGKGLEWVSSIRSSGGFTYYADSVKGRFTISRDNSKNTLYLQMNSLRAEDTAVYYCARFYDSFFDIWGQGTMVTVSS
VL: DIQMTQSPSSVSASVGDRVTITCRASQGISSWLAWYQQKPGKAPKLLIYAASSLQSGVPSRFSGSGSGTDFTLTISSLQPEDFATYYCQQANSFPITFGQGTRLEIKR
notes: also called recombinant Fab of 9A2
shCD131 M363A
  Kd: 171 nM
shCD131 N422A
  Kd: 54 nM
shCD131 Y421A
  Kd: 167 nM
shCD131 R418A
  Kd: 70 nM
